In doi:10.1101/2021.12.29.474488 (bioRxiv, 2021):

Columns and labels:
[1] = molecular target: MgtE T336C/L421C mutant lacking the N domain (T. thermophilus) (UniProt Q5SMG8); assay: cross-linking
crystal structure = molecular target: the molecule itself; assay: crystal structure

| stoichiometry N [1] | Molecule | binding result (crystal structure) |
| --- | --- | --- |
| 2 | MgtE T336C/L421C mutant lacking the N domain (from UniProt Q5SMG8 130-450) (domain or fragment) | – |
| – | MgtE transmembrane (TM) domain from Thermus thermophilus (domain or fragment, T. thermophilus, UniProt Q5SMG8 268-450, looked up) VPDLVYSEAGPVALWLARVRWLVILILTGMVTSSILQGFESVLEAVTALAFYVPVLLGTGGNTGNQSATLIIRALATRDLDLRDWRRVFLKEMGVGLLLGLTLSFLLVGKVYWDGHPLLLPVVGVSLVLIVFFANLVGAMLPFLLRRLGVDPALVSNPLVATLSDVTGLLIYLSVARLLLEAV | binds |
